Data set [1] addresses human BMAL1 expressed in E. coli as an N-terminal GST fusion protein [GST: P08515].
Data set [2] concerns the target T1, c-Jun (1-79) expressed in E. coli as an N-terminal GST fusion protein, P05412.
T1 chain: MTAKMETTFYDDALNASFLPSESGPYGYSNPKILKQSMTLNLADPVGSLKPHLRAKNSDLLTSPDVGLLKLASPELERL

Data set [3] deals with glutathion S-transferase (GST) [GST: P08515].

B1: human JNK2 (Upstate Biotechnology) (protein)
chain: MSDSKCDSQFYSVQVADSTFTVLKRYQQLKPIGSGAQGIVCAAFDTVLGINVAVKKLSRPFQNQTHAKRAYRELVLLKCVNHKNIISLLNVFTPQKTLEEFQDVYLVMELMDANLCQVIHMELDHERMSYLLYQMLCGIKHLHSAGIIHRDLKPSNIVVKSDCTLKILDFGLARTACTNFMMTPYVVTRYYRAPEVILGMGYKENVDIWSVGCIMGELVKGCVIFQGTDHIDQWNKVIEQLGTPSAEFMKKLQPTVRNYVENRPKYPGIKFEELFPDWIFPSESERDKIKTSQARDLLSKMLVIDPDKRISVDEALRHPYITVWYDPAEAEAPPPQIYDAQLEEREHAIEEWKELIYKEVMDWEERSKNGVVKDQPSDAAVSSNATPSQSSSINDISSMSTEQTLASDTDSSLDASTGPLEGCR
With B1, in data set [1], the “in vitro phosphorylation, JNK2 added instead of JNK3” value was “substantially not phosphorylated by any of JNK1 and JNK2 (which are members of the JNK family), and ERK2”.

B2: human JNK1 (Upstate Biotechnology) (protein)
chain: MSRSKRDNNFYSVEIGDSTFTVLKRYQNLKPIGSGAQGIVCAAYDAILERNVAIKKLSRPFQNQTHAKRAYRELVLMKCVNHKNIIGLLNVFTPQKSLEEFQDVYIVMELMDANLCQVIQMELDHERMSYLLYQMLCGIKHLHSAGIIHRDLKPSNIVVKSDCTLKILDFGLARTAGTSFMMTPYVVTRYYRAPEVILGMGYKENVDLWSVGCIMGEMVCHKILFPGRDYIDQWNKVIEQLGTPCPEFMKKLQPTVRTYVENRPKYAGYSFEKLFPDVLFPADSEHNKLKASQARDLLSKMLVIDASKRISVDEALQHPYINVWYDPSEAEAPPPKIPDKQLDEREHTIEEWKELIYKEVMDLEERTKNGVIRGQPSPLAQVQQ
B2: the “in vitro phosphorylation, JNK1 added instead of JNK3” value in data set [1] was “substantially not phosphorylated by any of JNK1 and JNK2 (which are members of the JNK family), and ERK2”.

B3: active form of human JNK3 (JNK3 α1) expressed as an N-terminal His-tagged protein (protein)
chain: MSLHFLYYCSEPTLDVKIAFCQGFDKQVDVSYIAKHYNMSKSKVDNQFYSVEVGDSTFTVLKRYQNLKPIGSGAQGIVCAAYDAVLDRNVAIKKLSRPFQNQTHAKRAYRELVLMKCVNHKNIISLLNVFTPQKTLEEFQDVYLVMELMDANLCQVIQMELDHERMSYLLYQMLCGIKHLHSAGIIHRDLKPSNIVVKSDCTLKILDFGLARTAGTSFMMTPYVVTRYYRAPEVILGMGYKENVDIWSVGCIMGEMVRHKILFPGRDYIDQWNKVIEQLGTPCPEFMKKLQPTVRNYVENRPKYAGLTFPKLFPDSLFPADSEHNKLKASQARDLLSKMLVIDPAKRISVDDALQHPYINVWYDPAEVEAPPPQIYDKQLDEREHTIEEWKELIYKEVMNSEEKTKNGVVKGQPSPSAQVQQ
For the protein B3, the “in vitro phosphorylation ([γ-32P]ATP kinase assay, SDS-PAGE, autoradiography)” value in data set [2] is recorded as “JNK3 did phosphorylate the GST-c-Jun (1-79) used as a positive control”; in data set [3], “did not phosphorylate the GST”; in data set [1], “The phosphorylation of GST-BMAL1 was observed in this experimental system”. In addition, the “in vitro phosphorylation with 0 ng, 14 ng, 28 ng and 70 ng of active JNK3” value in data set [1] was “GST-BMAL1 was phosphorylated in a JNK3 dose-dependent manner”.

B4: mouse ERK2 (New England Biolabs) (protein)
chain: MAAAAAAGPEMVRGQVFDVGPRYTNLSYIGEGAYGMVCSAYDNLNKVRVAIKKISPFEHQTYCQRTLREIKILLRFRHENIIGINDIIRAPTIEQMKDVYIVQDLMETDLYKLLKTQHLSNDHICYFLYQILRGLKYIHSANVLHRDLKPSNLLLNTTCDLKICDFGLARVADPDHDHTGFLTEYVATRWYRAPEIMLNSKGYTKSIDIWSVGCILAEMLSNRPIFPGKHYLDQLNHILGILGSPSQEDLNCIINLKARNYLLSLPHKNKVPWNRLFPNADSKALDLLDKMLTFNPHKRIEVEQALAHPYLEQYYDPSDEPIAEAPFKFDMELDDLPKEKLKELIFEETARFQPGYRS
Regarding B4, the “in vitro phosphorylation, ERK2 added instead of JNK3” value in data set [1] was “substantially not phosphorylated by any of JNK1 and JNK2 (which are members of the JNK family), and ERK2”.

Values taken from patent US20050037449.
